Results: patent publication US20060259987A1 (UNIVERSITY OF UTAH RESEARCH FOUNDATION, published 2006)
Numbering of substitutions follows the chain as printed. Names and notes keep the numbering of the source.

B1: LEAI.474 (other)
chain: SPVDICTAKPRDIPMNPMCIYRSPEKKATEDEGSEQKIPEATNRRVWELSKANSRFATTFYQHLADSKNDNDNIFLSPLSISTAFAMTKLGACNDTLQQLMEVFKFDTISEKTSDQIHFFFAKLNCRLYRKANKASKLVSANRLFGDKSLTFNETYQDISELVYGAKLQPLDFKENAEQSRAAINKWVSNKTEGRITDVIPSEAINELTVLVLVNTIYFKGLWKSKFSPENTRKELFYKADGESCSASMMYQEGKFRYRRVAEGTQVLELPFKGDDITMVLILPKPEKSLAKVEKELTPEVLQEWLDELEEMMLVVHMPRFRIEDGFSLKEQLQDMGLVDLFSPEKSKLPGIVAEGRDDLYVSDAFHKAFLEVNEEGSEAAASTALEAQGRSLNPNRVTFKANRPFLVFIREVPLNTIIFMGRVANPCVK
notes: also called DES.LEAI.474
B2: LEAI.480 (other)
chain: B1 chain with Q389Y
B3: 7EVEA.454 (other)
chain: B1 chain with A385E, L386V, A388W, Q389A
modifications: N-linked glycans added by Drosophila S2 cells; not carried by the letters
notes: Made in Drosophila S2 cells (DES) on the S137A background; N-terminus printed as SPVDI---
B4: LEAI.482 (other)
chain: B1 chain with Q389H
B5: 7EVEA.451 (other)
chain: B1 chain with A385E, L386V, A388I, Q389A
modifications: N-linked glycans added by Drosophila S2 cells; not carried by the letters
notes: as for B3

Experiments:
[1] = biological target: T1, thrombin (human, UniProt P00734 328-622); experiment: thrombin +hep: pseudo-first-order loss of chromogenic activity with heparin
Description: (§1) Polybrene was added with the chromogenic substrate to quench the heparin dependent reaction. The observed pseudo-first-order rate constants were calculated for each heparin (1 nM-5 nM) concentration from the slope of the log of residual proteinase activity vs. time. This was plotted against the heparin concentration to calculate the second-order rate constant for the inhibition by the heparin-ATIII complex, (Kₕₑₚ) from the equation Kobs=Kₕₑₚ[H]ₒ([AT]ₒ/[AT]ₒ+Kd)+Kuncat[AT]ₒ

[2] = biological target: T1, thrombin; experiment: Kapp IIa/hep relative to plasma.at3
[3] = biological target: T1, thrombin; experiment: cell-based or functional assay
[4] = biological target: T2, factor Xa (human, UniProt P00742 41-179; P00742 235-488, limits assumed); experiment: cell-based or functional assay
T2 sequence (P00742 41-179 limits assumed, chain 1 of 2): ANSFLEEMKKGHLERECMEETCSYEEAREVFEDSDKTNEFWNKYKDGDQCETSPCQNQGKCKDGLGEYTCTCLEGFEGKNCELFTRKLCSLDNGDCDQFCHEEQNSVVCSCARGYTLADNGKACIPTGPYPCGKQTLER
T2 sequence (P00742 235-488 limits assumed, chain 2 of 2): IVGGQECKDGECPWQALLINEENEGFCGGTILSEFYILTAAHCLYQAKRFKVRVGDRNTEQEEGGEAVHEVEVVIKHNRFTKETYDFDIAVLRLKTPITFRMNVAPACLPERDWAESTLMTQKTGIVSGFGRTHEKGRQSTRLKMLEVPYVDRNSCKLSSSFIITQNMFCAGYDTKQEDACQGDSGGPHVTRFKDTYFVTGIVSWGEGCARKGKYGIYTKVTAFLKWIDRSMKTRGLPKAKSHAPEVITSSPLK

[5] = biological target: T2, factor Xa; experiment: factor Xa +hep: pseudo-first-order loss of chromogenic activity with heparin
Description: as §1

[6] = biological target: T2, factor Xa; experiment: factor Xa prog: pseudo-first-order loss of chromogenic activity, no heparin, 25 C
Description: (§2) Polybrene was added with the chromogenic substrate to quench the heparin dependent reaction. […] This was plotted against the heparin concentration to calculate the second-order rate constant for the inhibition by the heparin-ATIII complex, (Kₕₑₚ) from the equation Kobs=Kₕₑₚ[H]ₒ([AT]ₒ/[AT]ₒ+Kd)+Kuncat[AT]ₒ

[7] = biological target: T2, factor Xa; experiment: Kapp fXa/prog relative to plasma.at3
[8] = biological target: T1, thrombin; experiment: thrombin prog: pseudo-first-order loss of chromogenic activity, no heparin, 25 C
Description: as §2

[9] = biological target: T1, thrombin; experiment: Kapp IIa/prog relative to plasma.at3
[10] = biological target: T2, factor Xa; experiment: Kapp fXa/hep relative to plasma.at3
[11] = biological target: T3, thrombin (human, UniProt P00734 328-622); experiment: heparin cofactor assay, HCA expt #3; ATIII titrated on 10 nM thrombin + 50 ug/ml UFH, chromogenic readout
Description: (§3) After 3 minutes, the reactions were quenched with polybrene and chromogenic substrate S2238 (thrombin) or S2765 (fXa), and the initial rate of chromophore production (405 nm) recorded to obtain a measurement residual, uninhibited thrombin or factor Xa. IC50s were determined from plots of ATIII concentration vs. percent residual target enzyme activity.

[12] = biological target: T4, factor Xa (human, UniProt P00742 41-179; P00742 235-488, limits assumed); experiment: cell-based or functional assay; remark: listed apart in the source
T4 sequence (P00742 41-179 limits assumed, form in doubt, chain 1 of 2): as the sequence (P00742 41-179 limits assumed, chain 1 of 2) above
T4 sequence (P00742 235-488 limits assumed, form in doubt, chain 2 of 2): as the sequence (P00742 235-488 limits assumed, chain 2 of 2) above

[13] = biological target: T3, thrombin; experiment: cell-based or functional assay; remark: listed apart in the source
[14] = biological target: T4, factor Xa; experiment: heparin cofactor assay, HCA expt #3; ATIII titrated on 10 nM fXa + 50 ug/ml UFH, chromogenic readout
Description: as §3

[15] = biological target: T4, factor Xa; experiment: heparin cofactor assay, HCA expt #2; ATIII titrated on 10 nM fXa + 50 ug/ml UFH, chromogenic readout
Description: as §3

[16] = biological target: T3, thrombin; experiment: heparin cofactor assay, HCA expt #2; ATIII titrated on 10 nM thrombin + 50 ug/ml UFH, chromogenic readout
Description: as §3

Binder	kapp (apparent second-order inhibition rate constant) [1]	Kapp as a percentage of the plasma ATIII value [2]	IC50 IIa/UFH; HCA #2 [3]	IC50 IIa/UFH; HCA #3 [3]	IC50 IIa/UFH; HCA #4 [3]	rsd. IIa catG; CA #12; stg1 conc 200 [3]	rsd. IIa catG; CA #14; stg1 conc 200 [3]	rsd. IIa catG; CA #15; stg1 conc 200 [3]	rsd. IIa hne; CA #14; stg1 conc 200 [3]	rsd. IIa no add; CA #14; stg1 conc 200 [3]	IC50 fXa/UFH; HCA #4 [4]	rsd. Xa catG; CA #14; stg1 conc 200 [4]	rsd. Xa hne; CA #14; stg1 conc 200 [4]	rsd. Xa no add; CA #14; stg1 conc 200 [4]	kapp (apparent second-order inhibition rate constant) [5]	kapp (apparent second-order inhibition rate constant) [6]	Kapp as a percentage of the plasma ATIII value [7]	kapp (apparent second-order inhibition rate constant) [8]	Kapp as a percentage of the plasma ATIII value [9]	Kapp as a percentage of the plasma ATIII value [10]	other results
B1	2.01e+06 M⁻¹ s⁻¹	34%	65 nM	47 nM	50 nM	1%	1%	1%	2%	2%	13 nM	1%	1%	2%	1.25e+06 M⁻¹ s⁻¹	10700 M⁻¹ s⁻¹	510%	2680 M⁻¹ s⁻¹	38%	217%	rsd. IIa hne; CA #15; stg1 conc 200 [3]: 6%; rsd. IIa no add; CA #15; stg1 conc 200 [3]: 0%; IC50 fXa/UFH; HCA #2 [4]: 20 nM; IC50 fXa/UFH; HCA #3 [4]: 16 nM; rsd. Xa catG; CA #12; stg1 conc 200 [4]: 1%; rsd. Xa catG; CA #15; stg1 conc 200 [4]: 0%; rsd. Xa hne; CA #15; stg1 conc 200 [4]: 1%; rsd. Xa no add; CA #15; stg1 conc 200 [4]: 0%
B2	2.11e+06 M⁻¹ s⁻¹	36%	75 nM	43 nM	55 nM	1%	1%	1%	3%	7%	40 nM	2%	4%	2%	489000 M⁻¹ s⁻¹	24100 M⁻¹ s⁻¹	1150%	7310 M⁻¹ s⁻¹	104%	85%	rsd. IIa hne; CA #12; stg1 conc 200 [3]: 2%; rsd. IIa hne; CA #15; stg1 conc 200 [3]: 4%; rsd. IIa no add; CA #12; stg1 conc 200 [3]: 1%; rsd. IIa no add; CA #15; stg1 conc 200 [3]: -1%; IC50 fXa/UFH; HCA #2 [4]: 65 nM; IC50 fXa/UFH; HCA #3 [4]: 46 nM; rsd. Xa catG; CA #12; stg1 conc 200 [4]: 1%; rsd. Xa catG; CA #15; stg1 conc 200 [4]: 0%; rsd. Xa hne; CA #12; stg1 conc 200 [4]: 1%; rsd. Xa hne; CA #15; stg1 conc 200 [4]: 1%; rsd. Xa no add; CA #12; stg1 conc 200 [4]: 1%; rsd. Xa no add; CA #15; stg1 conc 200 [4]: 1%
B3	–	–	–	–	–	–	–	–	–	–	–	–	–	–	–	–	–	–	–	–	IC50 [11]: 610 nM; rsd. Xa catG; CA expt #8; stg1 conc 200 [12]: 2 % of activity without ATIII; rsd. Xa hne; CA expt #8; stg1 conc 200 [12]: 1 % of activity without ATIII; rsd. Xa no add; CA expt #8; stg1 conc 200 [12]: 1 % of activity without ATIII; Rsd. IIa No add; CA expt #8; stg1 conc 200 [13]: 23 % of activity without ATIII; rsd. IIa catG; CA expt #8; stg1 conc 200 [13]: 93 % of activity without ATIII; rsd. IIa hne; CA expt #8; stg1 conc 200 [13]: 53 % of activity without ATIII; IC50 [14]: 20 nM
B4	5.37e+06 M⁻¹ s⁻¹	91%	–	–	25 nM	–	1%	–	4%	1%	22 nM	1%	2%	0%	831000 M⁻¹ s⁻¹	5360 M⁻¹ s⁻¹	256%	2920 M⁻¹ s⁻¹	41%	145%	–
B5	–	–	–	–	–	–	–	–	–	–	–	–	–	–	–	–	–	–	–	–	IC50 [15]: 38 nM; IC50 [11]: 450 nM; rsd. Xa catG; CA expt #8; stg1 conc 200 [12]: 1 % of activity without ATIII; rsd. Xa hne; CA expt #8; stg1 conc 200 [12]: 1 % of activity without ATIII; rsd. Xa no add; CA expt #8; stg1 conc 200 [12]: 1 % of activity without ATIII; Rsd. IIa No add; CA expt #8; stg1 conc 200 [13]: 6 % of activity without ATIII; rsd. IIa catG; CA expt #8; stg1 conc 200 [13]: 7 % of activity without ATIII; rsd. IIa hne; CA expt #8; stg1 conc 200 [13]: 12 % of activity without ATIII; IC50 [16]: 400 nM; IC50 [14]: 50 nM
